Test results reported in patent publication US20240043859A1, “HERBICIDE-RESISTANT PROTEIN, AND GENE AND USE THEREOF” (QINGDAO KINGAGROOT CHEMICAL COMPOUND CO., LTD., priority 2020, published 2024).
Entries after “also recorded” stand apart in the source; their conditions may differ.

B1: QYD46: AAD-like enzyme, SEQ ID NO. 91 (protein)
chain: MARAFYITPLDATFGAVVTGVKLVDLDDAGWRELHAAWLQYALLVFPGQYLKRDQQIAFARRFGPLEFEMVAISNVRSDGTLRVEKDNDDVMKILKGNMGWHADSTYMPVQAKGAVFSAEVVPTIGGHTGFADMRAAYDALDDVRKARVENLQARHSLHYSQSKLGHETKKSDGEYHGYGLHDGPVPLRPLVKTHPETGRKSLLIGRHAHAIPGMDGPESEAFLQELIDFACQPPRIYHHDWAAGDAVLWDNRCLLHQATPWDMTQKRIMWHSRIAGDPASESALAH
modifications: Synthetic polypeptide, QYD46, D46
B2: QYD49: AAD-like enzyme, SEQ ID NO. 97 (protein)
chain: MARTFDIEPLAGTTFGAVVRGMKVAILDDAGWRDLYAAWLKYALLVFPGQHLKRDEQIAFAKRFGALEFEMAALSNVKSDGTLRQEKDNDDMMKILKGNMGWHADSTYMPVQAKGAVFSAEIVPGAGGQTGFADMRAAYDALDAGRKAKVERLAAHHSLHYSQSKLGHQTKKQDGEYSGYGLHDGPVPLRPLVKTHPETGRKSLLIGRHAHNIPGMDKAESERLLQELVDFACQPPRVYHHDWTAGDAVVWDNRCLLHQATPWDMTQPRVMWHSRIAGDPRSEAALGVTAVSAAASG
modifications: Synthetic polypeptide, QYD49, D49
B3: QYD44: AAD-like enzyme, SEQ ID NO. 87 (protein)
chain: MARAFDIAPLDATFGAVVTGVKLAEVDDAGWCDLHAAWLEHALLVFPDQHLTRAQQIAFARRFGPLEFEMAAISNVRPDGSLRVESDNDDMMKILKGNMGWHADSTYMPVQAKGAVFSAEVVPGSGGQTGFADMRAAYDALDENLKARVETLQARHSLHYSQSKLGHETKTADGEYSGYGLHDGPVPLRPLVKVHPETGRKSLLIGRHAHAIPGMERAESERLLQQLIDFACQPPRVYHHDWAPGDAVLWDNRCLLHQATPWDMTQKRIMWHSRIAGDPASETALAGAGP
modifications: Synthetic polypeptide, QYD44, D44
B4: QYD47: AAD-like enzyme, SEQ ID NO. 93 (protein)
chain: MATRLEIKPLDATFGAVVTGIKLAEIDEATWRELHATWLKYALLVFPGQFLKRDQQIAFAKHFGPLEFEMAAISNVKSDGTLRIEKDNDDVMKILKGNMGWHADSTYMPVQAKGAVFSAEEVPTVGGQTGWADMRAAYDALDDARRARVETLQAYHSLHYSQSKLGHETRKSDGEYSGYGLHNGPIPLRPLVKTHPETGRKSLLIGRHAHDIPGMDREESQSFLEELVDFACRPPRIYHHDWAAGDAVVWDNRCLLHQATPWDMTQRRIMWHSRIAGDPASESALAA
modifications: Synthetic polypeptide, QYD47, D47
B5: QYD43: AAD-like enzyme, SEQ ID NO. 85 (protein)
chain: MRRLHIAPTGATLGATVTGVSLAALDEPTWQAIYRAWLEHALLIFPGQHLSNQQQIGFARRFGAIERIGGGEIVAISNVKADGRVRAHTPAEWDDMMKVIVGNMAWHADSTYMPVMAKGAVFSGELVPTERGETSFADMRAAYDALDQATRALVHQRSAHHSLVYSQSKLGHVPGAQSAYLGYGMDQTTAPLRPLVKVHPETGRQSLLIGRHAHAIPGMDPAESEVFLEGLVEWACQPPRIHTHHWTAGDVVLWDNRCLLHRAMPWDLAQPRVMWHSRLAGDPVAEAALPPVAPAAATH
modifications: Synthetic polypeptide, QYD43, D43
B6: QYD45: AAD-like enzyme, SEQ ID NO. 89 (protein)
chain: MARPFDIAPLDATFGAIVTGVKLAGLDEACWRALHAAWLQYALLVFPNQHLARVEQIAFAKRFGPLEFEMAAISNVRADGSLRVETDNDDMMKILKGNMGWHADSTYMPVQAKGAVFSAEVVPTIGGQTGFADMRAAYDALDEDLKARVETLQAYHSLHYSQSRLGHETKKADGEYSGYGLHDGPVPLRPLVKTHPETGRKSLLIGRHAHAIPGMEPGESERFLQELIDFACQPPRVYRHNWAPGDAVLWDNRCLLHQATPWDMTQKRIMWHSRIAGDAAGETALAH
modifications: Synthetic polypeptide, QYD45, D45

What was measured:
[1] = type: cell-based, Escherichia coli
[2] = tested on: Arabidopsis thaliana; assay: Herbicide resistance of transgenic Arabidopsis thaliana seedlings on plate medium (root growth); type: in vivo; conditions: plate medium with 2,4-D (0.3 μmol)
[3] = tested on: Arabidopsis thaliana; assay: as above; type: in vivo; conditions: for Resistance of transgenic Arabidopsis thaliana: 2,4-D / Resistance of transgenic Arabidopsis thaliana: MCPA: Arabidopsis overexpressing the gene
How it was run: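 After 3 days of cold treatment at 4 °C, seeds were cultured at 22 °C under a 16 h/8 h light cycle on MS herbicide medium (0.3 μM 2,4-D in the screen). Root growth was scored against wild-type seedlings at one week. The material was T2 AAD-overexpressing lines (AtUbi10 promoter, MAS terminator, hygromycin marker), two events each, tested with 2,4-D, 2,4-DB sodium and MCPA.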

[4] = Chromogenic reaction of degrading herbicides in bacteria: 2,4-D; type: cell-based, Escherichia coli; conditions: recombinant E. coli expressing the gene, 2,4-D added to the medium, red = phenols
How it was run: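 Colour from 2,4-D degradation was detected at A510 after 5 min at room temperature, with 4-aminoantipyrine and ferricyanide added to culture supernatant in pH 10 borate. Cultures were AAD12-expressing or empty-vector (pET15b) BL21(DE3), grown overnight at 28 °C with 0.5 mM 2,4-D, 0.1 mM IPTG and 2 mM α-ketoglutarate.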

[5] = Chromogenic reaction of degrading herbicides in bacteria: triclopyr; type: cell-based, Escherichia coli; conditions: recombinant E. coli expressing the gene
Protocol: To transform the plasmids to be tested, an AAD12-expressing plasmid and a blank control plasmid pET15b were respectively transformed into the protein expression E. coli BL21(DE3) strains. A monoclone was selected and inoculated in a 10 ml centrifuge tube with 3 ml LB medium, and cultivated at 37° C., 200 rpm for 6-8 hours. […] The temperature was switched to 28° C. and the cultivation continued overnight. In the next morning, 200 μL of each bacteria solution was taken and centrifuged to precipitate thallus, 180 μL of the supernatant was taken and added in a 96-well plate, and 20 μL of borate buffer of pH 10 was added. Then the mixture was added with 2 μL of 8% potassium ferricyanide and mixed well, followed by adding 2 μL of 2% 4-aminoantipyrine, and placed at room temperature for 5 min to observe the color and detect the A510 value. […]

Row | Molecule | Chromogenic reaction of degrading herbicides in bacteria: MCPA [1] | 2,4-D resistance of T1 generation transgenic seedlings (seminal root growth) [2] | Resistance of transgenic Arabidopsis thaliana: 2,4-D [3] | Resistance of transgenic Arabidopsis thaliana: MCPA [3] | Chromogenic reaction of degrading herbicides in bacteria: 2,4-D [4] | Chromogenic reaction of degrading herbicides in bacteria: 2,4-D ([4]; listed as D46) | Chromogenic reaction of degrading herbicides in bacteria: Triclopyr [5] | Chromogenic reaction of degrading herbicides in bacteria: Triclopyr ([5]; listed as D46) | Chromogenic reaction of degrading herbicides in bacteria: 2,4-D ([4]; listed as D49) | Chromogenic reaction of degrading herbicides in bacteria: 2,4-D ([4]; listed as D44) | Chromogenic reaction of degrading herbicides in bacteria: 2,4-D ([4]; listed as D47) | Chromogenic reaction of degrading herbicides in bacteria: Triclopyr ([5]; listed as D47) | Chromogenic reaction of degrading herbicides in bacteria: 2,4-D ([4]; listed as D43) | Chromogenic reaction of degrading herbicides in bacteria: Triclopyr ([5]; listed as D43) | MCPA resistance of T1 generation transgenic seedlings ([3]; plate medium with MCPA (0.1 μmol)) | 2,4-DB sodium resistance of T2 generation transgenic plants ([3]; plate medium, 2,4-DB sodium (0.7 μmol), two events per transformant) | MCPA resistance of T2 generation transgenic plants ([3]; plate medium, MCPA (0.1 μmol), two events per transformant) | Chromogenic reaction of degrading herbicides in bacteria: 2,4-D ([4]; listed as D45)
1 | B1 | Yes | showing tolerance to 2,4-D | Yes | Yes | Yes | could degrade 2,4-D; also recorded: capable of degrading 2,4-D | Yes | slight degradation |  |  |  |  |  |  |  |  |  | 
2 | B2 | Yes | showing tolerance to 2,4-D | Yes | Yes | Yes |  |  |  | could degrade 2,4-D; also recorded: capable of degrading 2,4-D |  |  |  |  |  |  |  |  | 
3 | B3 | Yes | showing tolerance to 2,4-D | Yes | Yes | Yes |  |  |  |  | could degrade 2,4-D; also recorded: capable of degrading 2,4-D |  |  |  |  |  |  |  | 
4 | B4 | Yes | showing tolerance to 2,4-D | Yes | Yes | Yes |  | Yes |  |  |  | could degrade 2,4-D; also recorded: capable of degrading 2,4-D | slight degradation |  |  |  |  |  | 
5 | B5 | Yes | showing tolerance to 2,4-D | Yes | Yes | Yes |  | Yes |  |  |  |  |  | could degrade 2,4-D; also recorded: capable of degrading 2,4-D | slight degradation |  |  |  | 
6 | B6 | Yes | showing tolerance to 2,4-D; also recorded: lower resistance | Yes | Yes | Yes |  |  |  |  |  |  |  |  |  | obvious resistance | obvious resistance | obvious resistance | could degrade 2,4-D; also recorded: capable of degrading 2,4-D
